Read-outs that look alike come from different tables or passages of the source. Bridges are numbered along the chain shown (N, C = ends). [ ]: non-standard residue; d: D form. Trp(1-Me) = Cn1cc(C[C@H](N)C(=O)O)c2ccccc21; 2Nal = N[C@@H](Cc1ccc2ccccc2c1)C(=O)O
Assays:
complement component C3 [1] = target: T1, complement component C3 (human, UniProt P01024 23-1663, limits assumed); test: cell-based or functional assay
complement component C3 [2] = target: T1, complement component C3; test: cell-based or functional assay; remark: listed apart in the source
complement component C3 [3] = target: T1, complement component C3; test: cell-based or functional assay; remark: listed apart in the source
complement component C3 [4] = target: T1, complement component C3; test: ITC; relative to the row 'Wild-type'
Description: Isothermal titration calorimetry experiments were performed using the Microcal VP-ITC calorimeter (Microcal Inc, Northampton, Mass.). Protein concentrations of 3.5-5 μM and peptide concentrations of 80-200 μM were used for these experiments. All titrations were performed in PBS (10 mM phosphate buffer with 150 mM NaCl, pH 7.4). In each experiment, the target protein, C3, was loaded into the cell, and peptide was loaded into the syringe. All experiments were performed at 25° C. and for each experiment, 2-μl peptide injections were made into the cell containing the protein. In each experiment, the raw isotherms were corrected for the heats of dilution by subtracting the isotherms representing peptide injections into the buffer. The resulting isotherms were fit to various models within the Origin 7.0 software, and the model that achieved the lowest chi square value was deemed to be appropriate for the respective dataset. Binding affinity and entropy values were plotted against log P values.
The calorimetric data obtained for the interaction of all the peptides with C3 fit to a one set of sites model with stoichiometry close to 1 (FIG. 4). […] As per the correlation, binding affinity increases with an increase in the hydrophobicity of the analog incorporated at position 4. This observation is consistent with the correlation shown between log P and the inhibitory constants.

T1 sequence (P01024 23-1663 limits assumed): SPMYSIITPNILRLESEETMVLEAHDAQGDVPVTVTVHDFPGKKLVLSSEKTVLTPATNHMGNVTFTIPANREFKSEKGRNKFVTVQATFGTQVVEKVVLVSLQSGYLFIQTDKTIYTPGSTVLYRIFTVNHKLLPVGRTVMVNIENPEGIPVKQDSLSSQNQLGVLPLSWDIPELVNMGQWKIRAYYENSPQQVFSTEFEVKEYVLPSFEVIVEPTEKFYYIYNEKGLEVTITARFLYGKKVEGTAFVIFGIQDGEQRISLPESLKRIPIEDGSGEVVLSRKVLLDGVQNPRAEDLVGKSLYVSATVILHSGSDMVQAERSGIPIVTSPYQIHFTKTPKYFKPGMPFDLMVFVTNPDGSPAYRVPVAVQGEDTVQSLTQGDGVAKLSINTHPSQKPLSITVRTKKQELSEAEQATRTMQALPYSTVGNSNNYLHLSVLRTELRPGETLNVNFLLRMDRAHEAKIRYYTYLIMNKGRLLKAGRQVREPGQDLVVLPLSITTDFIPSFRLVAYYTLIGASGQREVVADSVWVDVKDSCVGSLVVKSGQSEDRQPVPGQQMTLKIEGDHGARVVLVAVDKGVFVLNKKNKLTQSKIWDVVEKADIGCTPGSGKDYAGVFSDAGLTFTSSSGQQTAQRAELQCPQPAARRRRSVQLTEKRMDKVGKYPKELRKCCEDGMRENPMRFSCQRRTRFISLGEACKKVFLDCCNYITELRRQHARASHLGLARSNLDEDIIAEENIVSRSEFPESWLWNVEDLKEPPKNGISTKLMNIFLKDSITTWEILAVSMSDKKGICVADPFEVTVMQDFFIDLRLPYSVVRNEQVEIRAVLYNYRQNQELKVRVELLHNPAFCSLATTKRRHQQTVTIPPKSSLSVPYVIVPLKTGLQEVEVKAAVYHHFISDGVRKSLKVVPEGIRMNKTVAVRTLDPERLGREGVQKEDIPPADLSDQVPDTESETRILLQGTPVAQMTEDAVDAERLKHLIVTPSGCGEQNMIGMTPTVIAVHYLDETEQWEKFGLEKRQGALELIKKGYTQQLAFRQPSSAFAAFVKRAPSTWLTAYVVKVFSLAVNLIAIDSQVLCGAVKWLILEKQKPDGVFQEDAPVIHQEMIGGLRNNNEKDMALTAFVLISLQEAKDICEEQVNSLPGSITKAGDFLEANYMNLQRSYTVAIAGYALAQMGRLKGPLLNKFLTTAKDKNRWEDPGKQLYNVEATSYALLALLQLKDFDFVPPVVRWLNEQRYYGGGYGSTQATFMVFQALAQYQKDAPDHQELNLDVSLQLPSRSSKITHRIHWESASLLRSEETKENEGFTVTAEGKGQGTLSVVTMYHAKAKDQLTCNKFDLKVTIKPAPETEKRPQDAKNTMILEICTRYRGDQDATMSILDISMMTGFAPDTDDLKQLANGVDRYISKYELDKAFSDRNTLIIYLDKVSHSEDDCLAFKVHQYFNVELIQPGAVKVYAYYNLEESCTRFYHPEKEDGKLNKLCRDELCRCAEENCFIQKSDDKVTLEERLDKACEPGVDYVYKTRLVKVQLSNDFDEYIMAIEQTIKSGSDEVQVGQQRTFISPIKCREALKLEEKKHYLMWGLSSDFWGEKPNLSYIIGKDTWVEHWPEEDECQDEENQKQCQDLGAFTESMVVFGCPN

Molecule | IC50, complement inhibition (C3b/iC3b deposition ELISA, human plasma) (complement component C3 [1]) | Relative activity (to compstatin, SEQ ID NO: 1) (complement component C3 [1]) | Activity over compstatin (complement component C3 [1]) | further results
G(-1)/V4(6fW)/W7(6fW)/H9A/N14 (peptide) | 430 nM | 126 fold | 126 fold | complement inhibitory activity relative to Ac-V4W/H9A (complement component C3 [1]): 2.8 fold
G(-1)/V4(7-aza-W)/W7(7-aza-W)/H9A/N14 (peptide) | 122000 nM | 0.44 fold | – | –
ICVWQDWGAHRCTK (N-terminal acetyl; 1-methyltryptophan at position 4; lysine added at the C-terminus with PEG 5000 linked to its side chain) [Ac-V4(1-methyl-W)/H9A-K-PEG 5000] | – | – | – | amount needed for the same complement inhibition as Ac-V4(1-methyl-W)/H9A (complement component C3 [2]): 7 fold
Ac-ICV[Trp(1-Me)]QDWGAHRCTRLIEDICLPRWGCLWEDD-NH2 (disulfide 2-12, 20-26) [4(1MeW)-ABP] | – | – | – | amount needed for the same complement inhibition as Ac-V4(1-methyl-W)/H9A (complement component C3 [2]): 7 fold
Ac-ICV[2Nal]QDWGAHRCT-NH2 (disulfide 2-12; SMILES CC[C@H](C)[C@H](NC(C)=O)C(=O)N[C@H]1CSSC[C@@H](C(=O)N[C@H](C(N)=O)[C@@H](C)O)NC(=O)[C@H](CCCNC(=N)N)NC(=O)[C@H](Cc2c[nH]cn2)NC(=O)[C@H](C)NC(=O)CNC(=O)[C@H](Cc2c[nH]c3ccccc23)NC(=O)[C@H](CC(=O)O)NC(=O)[C@H](CCC(N)=O)NC(=O)[C@H](Cc2ccc3ccccc3c2)NC(=O)[C@H](C(C)C)NC1=O, also called Ac-V4(2-Nal)/W7/H9A) [Ac-V4(2-Nal)/H9A] | – | – | – | IC50, complement inhibition (C3b/iC3b deposition ELISA, human plasma) (complement component C3 [3]): 545 nM; -TΔΔS (complement component C3 [4]): -3.99 kcal/mol; ΔΔG (complement component C3 [4]): -0.1 kcal/mol; ΔΔH (complement component C3 [4]): 3.87 kcal/mol

Continued, in another order:

IC50, complement inhibition (C3b/iC3b deposition ELISA, human plasma) (complement component C3 [1]) | Relative activity (to compstatin, SEQ ID NO: 1) (complement component C3 [1]) | Activity over compstatin (complement component C3 [1]) | Molecule | further results
460 nM | 0.5 fold | – | Ac-V4W/7(5-methoxy W)/H9A (peptide) | –
33000 nM | 1.6 fold | – | G(-1)/V4(5-OH-W)/W7(5-OH-W)/H9A/N14 (peptide) | loss of complement inhibitory activity relative to Ac-V4W/H9A (complement component C3 [1]): 27.5 fold
480 nM | 112 fold | 112 fold | G(-1)/V4(5fW)/W7(5fW)/H9A/N14 (peptide) | complement inhibitory activity relative to Ac-V4W/H9A (complement component C3 [1]): 2.5 fold
1200 nM | 45 fold | 45 fold | G(-1)/V4W/H9A/N14 (peptide) | –

Source: patent US20160096866A1 (University of Pennsylvania, published 2016)
